{"source": "the RNAGym collection of RNA variant scans (doi:10.7554/elife.80360)", "parents": {"B1": {"name": "CPEB3 Ribozyme (parent)", "chain": "GGGGGCCACAGCAGAAGCGUUCACGUCGCGGCCCCUGUCAGAUUCUGGUGAAUCUGCGAAUUCUGCUGU"}}}
{"variants_of": "B1", "assay": "self-cleavage, relative activity (ratio to wild type); higher = more cleavage; co-transcriptional"}
{"variant": "C27G G30A", "self-cleavage": 0.228}
{"variant": "C27G G30C", "self-cleavage": 0.279}
{"variant": "C27A A59C", "self-cleavage": 0.247}
{"variant": "C27A A59U", "self-cleavage": 0.245}
{"variant": "U26G G58U", "self-cleavage": 0.87}
{"variant": "U26G G58A", "self-cleavage": 0.557}
{"variant": "C27G C35A", "self-cleavage": 0.124}
{"variant": "C27G C35G", "self-cleavage": 0.171}
{"variant": "C27G C35U", "self-cleavage": 0.179}
{"variant": "U26C U69C", "self-cleavage": 1.06}
{"variant": "U26C U69A", "self-cleavage": 1.01}
{"variant": "C27A G28C", "self-cleavage": 0.158}
{"variant": "C27A G28U", "self-cleavage": 0.187}
{"variant": "C27A G28A", "self-cleavage": 0.18}
{"variant": "U26G C34G", "self-cleavage": 0.409}
{"variant": "U26G C34U", "self-cleavage": 0.95}
{"variant": "C27G G48A", "self-cleavage": 0.156}
{"variant": "C27G U61A", "self-cleavage": 0.19}
{"variant": "U26C U67A", "self-cleavage": 1.01}
{"variant": "U26C U67C", "self-cleavage": 0.968}
{"variant": "U26C U67G", "self-cleavage": 0.945}
{"variant": "U26C G28U", "self-cleavage": 0.139}
{"variant": "U26C G28A", "self-cleavage": 0.108}
{"variant": "U26C G47U", "self-cleavage": 1.01}
{"variant": "U26C G47A", "self-cleavage": 0.957}
{"variant": "U26C G47C", "self-cleavage": 0.978}
{"variant": "C27A U44A", "self-cleavage": 0.439}
{"variant": "C27A U44C", "self-cleavage": 0.354}
{"variant": "C27A U44G", "self-cleavage": 0.295}
{"variant": "U26C G41A", "self-cleavage": 0.673}
{"variant": "U26C G41U", "self-cleavage": 0.8}
{"variant": "U26C G41C", "self-cleavage": 0.708}
{"variant": "U26C G48C", "self-cleavage": 0.988}
{"variant": "U26C G48A", "self-cleavage": 0.982}
{"variant": "U26C U64G", "self-cleavage": 0.752}
{"variant": "U26C U64A", "self-cleavage": 0.768}
{"variant": "U26C U64C", "self-cleavage": 0.688}
{"variant": "C27G U55G", "self-cleavage": 0.159}
{"variant": "C27G U55A", "self-cleavage": 0.142}
{"variant": "U26C G58U", "self-cleavage": 0.993}
{"variant": "U26C G58C", "self-cleavage": 0.963}
{"variant": "U26C G58A", "self-cleavage": 0.937}
{"variant": "C27G A60U", "self-cleavage": 0.181}
{"variant": "C27G A60G", "self-cleavage": 0.204}
{"variant": "U26C C32G", "self-cleavage": 0.365}
{"variant": "C27G A40C", "self-cleavage": 0.258}
{"variant": "C27A G50C", "self-cleavage": 0.493}
{"variant": "C27A G50U", "self-cleavage": 0.647}
{"variant": "C27A G50A", "self-cleavage": 0.587}
{"variant": "U26C U44C", "self-cleavage": 0.941}
{"variant": "U26C U44G", "self-cleavage": 1.02}
{"variant": "U26C U44A", "self-cleavage": 0.953}
{"variant": "C27A G68A", "self-cleavage": 0.853}
{"variant": "C27G G41U", "self-cleavage": 0.151}
{"variant": "C27G G41A", "self-cleavage": 0.154}
{"variant": "C27A C66G", "self-cleavage": 0.327}
{"variant": "C27A C66A", "self-cleavage": 0.334}
{"variant": "C27A G56C", "self-cleavage": 0.187}
{"variant": "C27A G56U", "self-cleavage": 0.371}
{"variant": "U26G", "self-cleavage": 0.924}
{"variant": "C27A U43G", "self-cleavage": 0.226}
{"variant": "C27A U43A", "self-cleavage": 0.18}
{"variant": "C27G G65A", "self-cleavage": 0.141}
{"variant": "C27G G68U", "self-cleavage": 0.309}
{"variant": "C27G G68C", "self-cleavage": 0.234}
{"variant": "C27G C34G", "self-cleavage": 0.142}
{"variant": "C27G C34U", "self-cleavage": 0.223}
{"variant": "C27A C54A", "self-cleavage": 0.25}
{"variant": "U26G G47C", "self-cleavage": 0.965}
{"variant": "C27A U67A", "self-cleavage": 0.685}
{"variant": "C27A U67C", "self-cleavage": 0.66}
{"variant": "C27G G47C", "self-cleavage": 0.226}
{"variant": "U26C U46G", "self-cleavage": 0.893}
{"variant": "U26C U46C", "self-cleavage": 0.95}
{"variant": "U26C U46A", "self-cleavage": 1.02}
{"variant": "C27A G37C", "self-cleavage": 0.17}
{"variant": "C27A G37U", "self-cleavage": 0.17}
{"variant": "C27G A59C", "self-cleavage": 0.151}
{"variant": "C27G A59G", "self-cleavage": 0.259}
{"variant": "C27G A59U", "self-cleavage": 0.216}
{"variant": "U26C G37A", "self-cleavage": 0.317}
{"variant": "U26C G37U", "self-cleavage": 0.205}
{"variant": "C27A G58U", "self-cleavage": 0.727}
{"variant": "C27A G58A", "self-cleavage": 0.377}
{"variant": "U26C C45U", "self-cleavage": 0.953}
{"variant": "C27G U38C", "self-cleavage": 0.243}
{"variant": "C27G U38A", "self-cleavage": 0.191}
{"variant": "U26G C54U", "self-cleavage": 0.931}
{"variant": "U26G C54G", "self-cleavage": 0.694}
{"variant": "U26G C54A", "self-cleavage": 0.708}
{"variant": "C27G G28U", "self-cleavage": 0.154}
{"variant": "C27G G28C", "self-cleavage": 0.13}
{"variant": "C27A G65C", "self-cleavage": 0.288}
{"variant": "C27A G65U", "self-cleavage": 0.202}
{"variant": "C27A G65A", "self-cleavage": 0.255}
{"variant": "U26G U46C", "self-cleavage": 0.86}
{"variant": "U26G U46A", "self-cleavage": 0.854}
{"variant": "U26G U46G", "self-cleavage": 0.86}
{"variant": "C27A G41A", "self-cleavage": 0.196}
{"variant": "C27A G41C", "self-cleavage": 0.149}
{"variant": "C27G U49G", "self-cleavage": 0.112}
{"variant": "C27G U49A", "self-cleavage": 0.209}
{"variant": "C27G U49C", "self-cleavage": 0.22}
{"variant": "C27G U53C", "self-cleavage": 0.134}
{"variant": "C27G U53G", "self-cleavage": 0.267}
{"variant": "C27G U53A", "self-cleavage": 0.221}
{"variant": "U26G A42U", "self-cleavage": 0.828}
{"variant": "U26G A42C", "self-cleavage": 0.86}
{"variant": "U26C C35U", "self-cleavage": 0.964}
{"variant": "U26C C35G", "self-cleavage": 0.375}
{"variant": "C27G C54G", "self-cleavage": 0.169}
{"variant": "C27G C54U", "self-cleavage": 0.151}
{"variant": "C27A U36C", "self-cleavage": 0.261}
{"variant": "C27A U36G", "self-cleavage": 0.146}
{"variant": "U26C G50C", "self-cleavage": 1}
{"variant": "U26C G50U", "self-cleavage": 0.956}
{"variant": "C27G C32U", "self-cleavage": 0.207}
{"variant": "C27G C32A", "self-cleavage": 0.201}
{"variant": "C27G C32G", "self-cleavage": 0.134}
{"variant": "C27A U46A", "self-cleavage": 0.736}
{"variant": "C27A U46G", "self-cleavage": 0.725}
{"variant": "C27A C32G", "self-cleavage": 0.155}
{"variant": "C27A C32A", "self-cleavage": 0.241}
{"variant": "C27A U55A", "self-cleavage": 0.237}
{"variant": "C27A U55G", "self-cleavage": 0.226}
{"variant": "C27A U55C", "self-cleavage": 0.272}
{"variant": "U26G C39G", "self-cleavage": 0.756}
{"variant": "U26G C39A", "self-cleavage": 0.406}
{"variant": "U26G C39U", "self-cleavage": 0.731}
{"variant": "U26G A52G", "self-cleavage": 0.914}
{"variant": "U26G A52C", "self-cleavage": 0.912}
{"variant": "U26G A52U", "self-cleavage": 0.868}
{"variant": "C27A A42C", "self-cleavage": 0.286}
{"variant": "C27A A42U", "self-cleavage": 0.379}
{"variant": "C27A A42G", "self-cleavage": 0.419}
{"variant": "U26G C57A", "self-cleavage": 0.339}
{"variant": "U26G C57G", "self-cleavage": 0.172}
{"variant": "U26C C29U", "self-cleavage": 0.135}
{"variant": "U26C U55C", "self-cleavage": 0.833}
{"variant": "U26C U55A", "self-cleavage": 0.821}
{"variant": "C27G U46A", "self-cleavage": 0.162}
{"variant": "C27G U46C", "self-cleavage": 0.181}
{"variant": "C27G U46G", "self-cleavage": 0.188}
{"variant": "U26G G30C", "self-cleavage": 0.284}
{"variant": "U26G G30U", "self-cleavage": 0.164}
{"variant": "C27G C33G", "self-cleavage": 0.241}
{"variant": "U26C C39G", "self-cleavage": 0.939}
{"variant": "U26C C39U", "self-cleavage": 0.85}
{"variant": "U26C U61C", "self-cleavage": 0.617}
{"variant": "U26C U61A", "self-cleavage": 0.874}
{"variant": "U26C U61G", "self-cleavage": 0.693}
{"variant": "C27A U49C", "self-cleavage": 0.702}
{"variant": "C27A U49G", "self-cleavage": 0.59}
{"variant": "C27A U62G", "self-cleavage": 0.241}
{"variant": "C27A U62C", "self-cleavage": 0.365}
{"variant": "C27A U62A", "self-cleavage": 0.288}
{"variant": "U26C U38G", "self-cleavage": 0.188}
{"variant": "U26C U38A", "self-cleavage": 0.837}
{"variant": "U26C U38C", "self-cleavage": 0.925}
{"variant": "U26G U69A", "self-cleavage": 1}
{"variant": "U26G U69G", "self-cleavage": 1}
{"variant": "U26G U69C", "self-cleavage": 1.04}
{"variant": "C27A U38A", "self-cleavage": 0.26}
{"variant": "C27A U38C", "self-cleavage": 0.324}
{"variant": "C27G C66U", "self-cleavage": 0.156}
{"variant": "C27G C66A", "self-cleavage": 0.174}
{"variant": "C27G G37C", "self-cleavage": 0.162}
